# Reference: PMC11016868
# T1: MtrAC (MtrA DNA-binding domain) (UniProt P9WGM7 131-228)
# T1 sequence: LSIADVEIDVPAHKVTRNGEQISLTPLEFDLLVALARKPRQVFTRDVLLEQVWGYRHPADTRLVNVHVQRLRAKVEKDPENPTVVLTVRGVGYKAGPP
# B1: dnaA promoter DNA (dsDNA)
# DNA 1: GGCGGTGTAGTTATCACGCCGTTT
# DNA 2: AAACGGCGTGATAACTACACCGCC
# B2: PhoP DNA (from PhoP-DNA complex, 5ED4) (dsDNA)
# DNA 1: GATTCACAGCTGATTCACAGCATCTA
# DNA 2: TAGATGCTGTGAATCAGCTGTGAATC
# Legend:
# [1] = target: T1, MtrAC (MtrA DNA-binding domain); assay: fluorescence polarization
# PhoP = PhoP (UniProt P71814 1-247); assay: fluorescence polarization
Binder,Kd [1] [nM],binding result (PhoP)
B1,1230 ± 260,
B2,,binds
